Test results: publication PMC9279154 (Nature, 2022)

B1: 50 bp palindromic dsRNA (dsRNA)
RNA 1: GAGACUUGGGCAAUGUGACUGCUGAUCAGCAGUCACAUUGCCCAAGUCUCUU
RNA 2: B1 RNA 1
modifications: 5'-monophosphate on both strands
B2: Dcr-2(D1217N/D1476N), catalytically inactive mutant (enzyme, Drosophila melanogaster, UniProt A1ZAW0 1-1722, looked up)
chain: MEDVEIKPRGYQLRLVDHLTKSNGIVYLPTGSGKTFVAILVLKRFSQDFDKPIESGGKRALFMCNTVELARQQAMAVRRCTNFKVGFYVGEQGVDDWTRGMWSDEIKKNQVLVGTAQVFLDMVTQTYVALSSLSVVIIDECHHGTGHHPFREFMRLFTIANQTKLPRVVGLTGVLIKGNEITNVATKLKELEITYRGNIITVSDTKEMENVMLYATKPTEVMVSFPHQEQVLTVTRLISAEIEKFYVSLDLMNIGVQPIRRSKSLQCLRDPSKKSFVKQLFNDFLYQMKEYGIYAASIAIISLIVEFDIKRRQAETLSVKLMHRTALTLCEKIRHLLVQKLQDMTYDDDDDNVNTEEVIMNFSTPKVQRFLMSLKVSFADKDPKDICCLVFVERRYTCKCIYGLLLNYIQSTPELRNVLTPQFMVGRNNISPDFESVLERKWQKSAIQQFRDGNANLMICSSVLEEGIDVQACNHVFILDPVKTFNMYVQSKGRARTTEAKFVLFTADKEREKTIQQIYQYRKAHNDIAEYLKDRVLEKTEPELYEIKGHFQDDIDPFTNENGAVLLPNNALAILHRYCQTIPTDAFGFVIPWFHVLQEDERDRIFGVSAKGKHVISINMPVNCMLRDTIYSDPMDNVKTAKISAAFKACKVLYSLGELNERFVPKTLKERVASIADVHFEHWNKYGDSVTATVNKADKSKDRTYKTECPLEFYDALPRVGEICYAYEIFLEPQFESCEYTEHMYLNLQTPRNYAILLRNKLPRLAEMPLFSNQGKLHVRVANAPLEVIIQNSEQLELLHQFHGMVFRDILKIWHPFFVLDRRSKENSYLVVPLILGAGEQKCFDWELMTNFRRLPQSHGSNVQQREQQPAPRPEDFEGKIVTQWYANYDKPMLVTKVHRELTPLSYMEKNQQDKTYYEFTMSKYGNRIGDVVHKDKFMIEVRDLTEQLTFYVHNRGKFNAKSKAKMKVILIPELCFNFNFPGDLWLKLIFLPSILNRMYFLLHAEALRKRFNTYLNLHLLPFNGTDYMPRPLEIDYSLKRNVDPLGNVIPTEDIEEPKSLLEPMPTKSIEASVANLEITEFENPWQKYMEPVDLSRNLLSTYPVELDYYYHFSVGNVCEMNEMDFEDKEYWAKNQFHMPTGNIYGNRTPAKTNANVPALMPSKPTVRGKVKPLLILQKTVSKEHITPAEQGEFLAAITASSAADVFDMERLEILGNSFLKLSATLYLASKYSDWNEGTLTEVKSKLVSNRNLLFCLIDADIPKTLNTIQFTPRYTWLPPGISLPHNVLALWRENPEFAKIIGPHNLRDLALGDEESLVKGNCSDINYNRFVEGCRANGQSFYAGADFSSEVNFCVGLVTIPNKVIADTLEALLGVIVKNYGLQHAFKMLEYFKICRADIDKPLTQLLNLELGGKKMRANVNTTEIDGFLINHYYLEKNLGYTFKDRRYLLQALTHPSYPTNRITGSYQELEFIGNAILDFLISAYIFENNTKMNPGALTDLRSALVNNTTLACICVRHRLHFFILAENAKLSEIISKFVNFQESQGHRVTNYVRILLEEADVQPTPLDLDDELDMTELPHANKCISQEAEKGVPPKGEFNMSTNVDVPKALGDVLEALIAAVYLDCRDLQRTWEVIFNLFEPELQEFTRKVPINHIRQLVEHKHAKPVFSSPIVEGETVMVSCQFTCMEKTIKVYGFGSNKDQAKLSAAKHALQQLSKCDA
notes: Dicer-2 (Dcr-2), Drosophila melanogaster, UniProt A1ZAW0, full length with D1217N and D1476N; also called Dcr-2(DDNN); Dcr-2^DDNN; source: sf9 cells (Bac-to-Bac baculovirus), purified (Ni-NTA, Hitrap Q, 2nd Ni-NTA, SEC)
B3: Drosophila melanogaster Loquacious-PD (Loqs-PD), full length, tag removed (natural protein, UniProt Q9VJY9-4 1-359, looked up)
chain: MDQENFHGSSLPQQLQNLHIQPQQASPNPVQTGFAPRRHYNNLVGLGNGNAVSGSPVKGAPLGQRHVKLKKEKISAQVAQLSQPGQLQLSDVGDPALAGGSGLQGGVGLMGVILPSDEALKFVSETDANGLAMKTPVSILQELLSRRGITPGYELVQIEGAIHEPTFRFRVSFKDKDTPFTAMGAGRSKKEAKHAAARALIDKLIGAQLPESPSSSAGPSVTGLTVAGSGGDGNANATGGGDASDKTVGNPIGWLQEMCMQRRWPPPSYETETEVGLPHERLFTIACSILNYREMGKGKSKKIAKRLAAHRMWMRLQETPIDSGKISDSICGELEGEVSIIQDIDRYEQVSKDFEFIKI
notes: Loquacious-PD (Loqs-PD), Drosophila melanogaster, UniProt M9MRT5, full length (C-terminal residue Ile359); also called DmLoqs-PD; Loqs-PD^FL; source: E. coli BL21 (DE3), purified (Ni-NTA, ULP1 cleavage, 2nd Ni-NTA, SEC)
B4: His-tagged Loqs-PD, wild type (natural protein, Drosophila melanogaster, UniProt Q9VJY9-4 1-359, looked up)
chain: B3 chain
notes: Loquacious-PD (Loqs-PD), Drosophila melanogaster, UniProt M9MRT5, full length; The only construct described is in a modified pET28a with a 6×His-SUMO tag; also called WT; source: E. coli BL21 (DE3), purified

Experiments:
[1] = target: Dcr-2 delta-dsRBD;Loqs-PD (Drosophila melanogaster;Drosophila …, UniProt A1ZAW0;Q9VJY9-4 1-1628;1-359, |); assay: cryo-EM; ATP, Mg2+; no further dsRNA bending; Cryo-EM and EMSA buffers not given in the material; with or without ATP and Mg2+; conditions: protein: recombinant;recombinant; tags: Ni-NTA purified;6xHis-SUMO removed by ULP1; copies: 1;1; 3' overhang 2 nt (UU) at both ends; 50 bp; self-complementary, 2 copies of one strand
[2] = target: Dcr-2 WT;Loqs-PD (Drosophila melanogaster;Drosophila …, UniProt A1ZAW0;Q9VJY9-4 1-1722;1-359, |); assay: cryo-EM; ATP, Mg2+; post-dicing state, RNA cleaved 21 bp from terminus, 4.6 A; Cryo-EM and EMSA buffers not given in the material; with or without ATP and Mg2+; conditions: protein: recombinant;recombinant; tags: Ni-NTA purified;6xHis-SUMO removed by ULP1; copies: 1;1; 3' overhang 2 nt (UU) at both ends; 50 bp; self-complementary, 2 copies of one strand
[3] = target: Dcr-2 DDNN;Loqs-PD (Drosophila melanogaster;Drosophila …, UniProt A1ZAW0;Q9VJY9-4 1-1722;1-359, D1217N;D1476N|); assay: cryo-EM; no ATP; initial binding state, dimer, 3.1 A; Cryo-EM and EMSA buffers not given in the material; with or without ATP and Mg2+; conditions: protein: recombinant;recombinant; tags: Ni-NTA purified;6xHis-SUMO removed by ULP1; copies: 1;1; 3' overhang 2 nt (UU) at both ends; 50 bp; self-complementary, 2 copies of one strand
[4] = target: the molecule itself; assay: cryo-EM structure; Dcr-2^DDNN–Loqs-PD with 50 bp dsRNA, without ATP: initial dsRNA-binding state (dimer), 3.1 Å
[5] = target: B2; assay: as above; conditions: both partners purified
[6] = target: T1, Drosophila melanogaster Dicer-2 (Dcr-2), wild type (Drosophila melanogaster, UniProt A1ZAW0 1-1722); assay: cryo-EM structure; Dcr-2^DDNN–Loqs-PD in the apo state (no dsRNA, no ATP); Dcr-2^DDNN–Loqs-PD with 50 bp dsRNA, ATP and Mg2+ (early-translocation, mid-translocation and active dicing states); WT Dcr-2–Loqs-PD with 50 bp dsRNA, ATP and Mg2+ (post-dicing state); conditions: both partners purified
T1 construct: Dicer-2 (Dcr-2), Drosophila melanogaster, UniProt A1ZAW0, full length; The pull-down methods call it 'untagged Dcr-2'; also called WT Dcr-2; Dcr-2^WT; source: sf9 cells (Bac-to-Bac baculovirus), purified (Ni-NTA, Hitrap Q, 2nd Ni-NTA, SEC)

[7] = target: T1, Drosophila melanogaster Dicer-2 …; assay: pull-down; 1.25 μM His-tagged Loqs-PD and 0.6 μM untagged Dcr-2 mixed on ice for 30 min, then Ni-NTA agarose; 200 mM NaCl, 20 mM Tris pH 8.0, 5% glycerol, 20 mM imidazole, 4 °C, 1 h; SDS–PAGE; conditions: both partners purified

B1: binds [1]; binds [2]; binds [3].

For B2, the “stoichiometry N” value [4] was 2.

B3: binds [5]; binds [6].

B4: binds [7].
